# Changes are numbered by the printed parent chain. No end group written: not given here.
# B1: Val^8-Gly^36-Pro^37-GLP-1(7-37)NH2 (peptide)
# peptide: HVEGTFTSDVSSYLEGQAAKEFIAWLVKGGP-NH2
# B2: Val^8-Pro^22-GLP-1(7-37)OH (peptide)
# peptide: HVEGTFTSDVSSYLEPQAAKEFIAWLVKGRG
# B3: Val^8-Glu^22-GLP-1(7-37)OH (peptide)
# peptide: B2 peptide with P16E
# B4: Val^8-Glu^22-Lys^23-GLP-1(7-37)OH (peptide)
# peptide: B2 peptide with P16E, Q17K
# B5: Val^8-Lys^22-GLP-1(7-37)OH (peptide)
# peptide: B2 peptide with P16K
# B6: Val^8-Ala^22-GLP-1(7-37)OH (peptide)
# peptide: B2 peptide with P16A
# B7: Val^8-His^22-GLP-1(7-37)OH (peptide)
# peptide: B2 peptide with P16H
# B8: Val^8-Ser^22-GLP-1(7-37)OH (peptide)
# peptide: B2 peptide with P16S
# B9: Val^8-Asp^22-GLP-1(7-37)OH (peptide)
# peptide: B2 peptide with P16D
# B10: Val^8-Glu^16-GLP-1(7-37)OH (peptide)
# peptide: B2 peptide with V10E, P16G
# B11: Val^8-Ala^16-GLP-1(7-37)OH (peptide)
# peptide: B2 peptide with V10A, P16G
# B12: Val^8-Lys^20-GLP-1(7-37)OH (peptide)
# peptide: B2 peptide with L14K, P16G
# B13: Val^8-Glu^36-GLP-1(7-37)OH (peptide)
# peptide: B2 peptide with P16G, R30E
# B14: Val^8-Gly^33-GLP-1(7-37)OH (peptide)
# peptide: B2 peptide with P16G, V27G
# B15: Val^8-Lys^33-Asn^34-GLP-1(7-37)OH (peptide)
# peptide: B2 peptide with P16G, V27K, K28N
# B16: Val^8-Glu^30-GLP-1(7-37)OH (peptide)
# peptide: B2 peptide with P16G, A24E
# B17: Val^8-Ala^11-GLP-1(7-37)OH (peptide)
# peptide: B2 peptide with T5A, P16G
# B18: Val^8-Ser^30-GLP-1(7-37)OH (peptide)
# peptide: B2 peptide with P16G, A24S
# B19: Val^8-His^24-GLP-1(7-37)OH (peptide)
# peptide: B2 peptide with P16G, A18H
# B20: Val^8-Lys^22-Glu^23-GLP-1(7-37)OH (peptide)
# peptide: B2 peptide with P16K, Q17E
# B21: Val^8-Lys^22-Glu^30-GLP-1(7-37)OH (peptide)
# peptide: B2 peptide with P16K, A24E
# B22: Val^8-His^30-GLP-1(7-37)OH (peptide)
# peptide: B2 peptide with P16G, A24H
# B23: Val^8-Glu^34-GLP-1(7-37)OH (peptide)
# peptide: B2 peptide with P16G, K28E
# B24: Val^8-Glu^33-GLP-1(7-37)OH (peptide)
# peptide: B2 peptide with P16G, V27E
# B25: Val^8-His^37-GLP-1(7-37)OH (peptide)
# peptide: B2 peptide with P16G, G31H
# B26: Val^8-Lys^24-GLP-1(7-37)OH (peptide)
# peptide: B2 peptide with P16G, A18K
# B27: Val^8-Gly^34-Lys^35-GLP-1(7-37)OH (peptide)
# peptide: B2 peptide with P16G, K28G, G29K
# B28: Val^8-Asp^30-GLP-1(7-37)OH (peptide)
# peptide: B2 peptide with P16G, A24D
# B29: Val^8-Lys^23-GLP-1(7-37)OH (peptide)
# peptide: B2 peptide with P16G, Q17K
# B30: Val^8-His^27-GLP-1(7-37)OH (peptide)
# peptide: B2 peptide with P16G, E21H
# B31: Val^8-Lys^33-Val^34-GLP-1(7-37)OH (peptide)
# peptide: B2 peptide with P16G, V27K, K28V
# B32: Val^8-Ala^33-GLP-1(7-37)OH (peptide)
# peptide: B2 peptide with P16G, V27A
# B33: Val^8-Glu^35-GLP-1(7-37)OH (peptide)
# peptide: B2 peptide with P16G, G29E
# B34: Val^8-Lys^11-GLP-1(7-37)OH (peptide)
# peptide: B2 peptide with T5K, P16G
# B35: Gly^8-His^11-GLP-1(7-37)OH (peptide)
# peptide: B2 peptide with V2G, T5H, P16G
# B36: Gly^8-Glu^30-GLP-1(7-37)OH (peptide)
# peptide: B2 peptide with V2G, P16G, A24E
# B37: Val^8-Pro^35-GLP-1(7-37)OH (peptide)
# peptide: B2 peptide with P16G, G29P
# B38: Val^8-His^36-GLP-1(7-37)OH (peptide)
# peptide: B2 peptide with P16G, R30H
# B39: Val^8-Glu^26-GLP-1(7-37)OH (peptide)
# peptide: B2 peptide with P16G, K20E
# B40: Val^8-His^26-GLP-1(7-37)OH (peptide)
# peptide: B2 peptide with P16G, K20H
# B41: Val^8-His^35-GLP-1(7-37)OH (peptide)
# peptide: B2 peptide with P16G, G29H
# B42: Gln^22-GLP-1(7-37)OH (peptide)
# peptide: B2 peptide with V2A, P16Q
# B43: Val^8-Leu^16-Glu^26-GLP-1(7-37)OH (peptide)
# peptide: B2 peptide with V10L, P16G, K20E
# B44: Val^8-Glu^22-GLP-1(7-36)NH2 (peptide)
# peptide: HVEGTFTSDVSSYLEEQAAKEFIAWLVKGR-NH2
# B45: Val^8-Lys^22-GLP-1(7-36)NH2 (peptide)
# peptide: HVEGTFTSDVSSYLEKQAAKEFIAWLVKGR-NH2
# B46: Val^8-Trp^16-Glu^22-Val^25-GLP-1(7-37)OH (peptide)
# peptide: B2 peptide with V10W, P16E, A19V
# B47: Val^8-Leu^25-GLP-1(7-37)OH (peptide)
# peptide: B2 peptide with P16G, A19L
# B48: Val^8-Leu^16-GLP-1(7-37)OH (peptide)
# peptide: B2 peptide with V10L, P16G
# B49: Val^8-Tyr^12-Tyr^16-GLP-1(7-37)OH (peptide)
# peptide: B2 peptide with F6Y, V10Y, P16G
# B50: Val^8-Trp^12-GLP-1(7-37)OH (peptide)
# peptide: B2 peptide with F6W, P16G
# B51: Gly^8-GLP-1(7-37)OH (peptide)
# peptide: B2 peptide with V2G, P16G
# B52: Val^8-Tyr^12-GLP-1(7-36)NH2 (peptide)
# peptide: HVEGTYTSDVSSYLEGQAAKEFIAWLVKGR-NH2
# Molecular target: T1, human GLP-1 receptor (human, UniProt P43220)
# Assay: cell-based or functional assay
row,Binder,GLP-1 Receptor Activation (relative to GLP-1(7-37)OH) [relative potency]
1,B1,0.53
2,B2,0.01
3,B3,1.29
4,B4,1.43
5,B5,0.58
6,B6,0.56
7,B7,0.14
8,B8,0.5
9,B9,0.4
10,B10,0.047
11,B11,0.112
12,B12,0.33
13,B13,0.11
14,B14,0.01
15,B15,0.09
16,B16,0.29
17,B17,0.021
18,B18,0.19
19,B19,0.007
20,B20,0.35
21,B21,0.37
22,B22,0.19
23,B23,0.17

row,Binder,GLP-1 Receptor Activation (relative to GLP-1(7-37)OH) [relative potency]
1,B24,0.039
2,B25,0.33
3,B26,0.02
4,B27,0.34
5,B28,0.15
6,B29,0.18
7,B30,0.37
8,B31,0.08
9,B32,0.1
10,B33,0.15
11,B34,0.001
12,B35,0.282
13,B36,0.29
14,B37,0.094
15,B38,0.22
16,B39,1.5
17,B40,1.6
18,B41,0.41
19,B42,0.42
20,B43,0.23
21,B44,1
22,B45,0.53

# Molecular target: T1, human GLP-1 receptor
# Assay: cell-based or functional assay
# Remark: another data set of the same source
row,Binder,GLP-1 receptor activation relative to Val^8-GLP-1(7-37)OH [relative potency]
1,B46,4.4
2,B47,0.5
3,B48,1.1
4,B49,1.5
5,B50,1.1
6,B51,1.7
7,B52,1.1
